Data as given in publication PMC5397172.

Legend:
Experiment in all cases: EMSA
HA-p65;Flag-p50 = HA-p65;Flag-p50 (human?;human?, UniProt Q04206;P19838 1-551;1-433, |)
Flag-p50 (homodimer) = Flag-p50 (homodimer) (UniProt P19838 1-433)
Flag-p65 (homodimer) = Flag-p65 (homodimer) (UniProt Q04206 1-551)

Measured: binding result

Flag-p65 (homodimer), sequence (Q04206 whole entry): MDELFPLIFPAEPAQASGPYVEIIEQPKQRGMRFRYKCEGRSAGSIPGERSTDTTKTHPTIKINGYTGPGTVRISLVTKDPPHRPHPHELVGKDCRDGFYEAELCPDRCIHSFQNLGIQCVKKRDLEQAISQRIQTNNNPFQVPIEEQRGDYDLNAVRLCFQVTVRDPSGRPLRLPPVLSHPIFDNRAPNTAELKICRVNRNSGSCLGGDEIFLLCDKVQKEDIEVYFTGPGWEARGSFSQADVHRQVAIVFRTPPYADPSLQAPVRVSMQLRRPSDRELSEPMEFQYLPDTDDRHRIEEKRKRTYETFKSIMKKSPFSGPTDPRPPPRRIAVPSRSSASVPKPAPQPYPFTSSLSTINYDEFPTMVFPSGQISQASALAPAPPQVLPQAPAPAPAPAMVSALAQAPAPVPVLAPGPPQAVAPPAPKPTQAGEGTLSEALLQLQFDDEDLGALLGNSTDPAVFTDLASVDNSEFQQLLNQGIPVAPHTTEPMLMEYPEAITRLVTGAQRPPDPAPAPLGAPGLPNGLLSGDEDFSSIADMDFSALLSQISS
HA-p65;Flag-p50, sequence (Q04206 whole entry, chain 1 of 2): as the sequence (Q04206 whole entry) above
HA-p65;Flag-p50, sequence (P19838 1-433, chain 2 of 2): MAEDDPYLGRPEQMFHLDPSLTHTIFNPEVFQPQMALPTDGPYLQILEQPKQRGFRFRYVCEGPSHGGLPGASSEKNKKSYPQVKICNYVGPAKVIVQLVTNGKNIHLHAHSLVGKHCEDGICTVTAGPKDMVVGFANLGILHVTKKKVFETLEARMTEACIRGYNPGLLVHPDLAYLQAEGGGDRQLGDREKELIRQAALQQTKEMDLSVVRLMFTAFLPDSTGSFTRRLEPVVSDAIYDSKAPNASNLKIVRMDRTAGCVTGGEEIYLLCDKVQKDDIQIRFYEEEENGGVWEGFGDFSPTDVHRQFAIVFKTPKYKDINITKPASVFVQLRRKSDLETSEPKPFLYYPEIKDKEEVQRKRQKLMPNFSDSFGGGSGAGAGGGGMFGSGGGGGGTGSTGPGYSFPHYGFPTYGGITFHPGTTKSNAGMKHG
Flag-p50 (homodimer), sequence (P19838 1-433): as the sequence (P19838 1-433, chain 2 of 2) above

B1: Ig kappaB mutant (dsDNA)
DNA 1: AGTTGAATCCACTTTCCCAGG
DNA 2: CCTGGGAAAGTGGATTCAACT
no binding: all assays above
